Measurements published in US20230235078A1 (University of Texas, published 2023).

T1: human DDR2 ECD (human, UniProt Q16832 22-399)
T1 construct: extracellular domain; also called DDR2 ECD protein
T1 sequence (looked up): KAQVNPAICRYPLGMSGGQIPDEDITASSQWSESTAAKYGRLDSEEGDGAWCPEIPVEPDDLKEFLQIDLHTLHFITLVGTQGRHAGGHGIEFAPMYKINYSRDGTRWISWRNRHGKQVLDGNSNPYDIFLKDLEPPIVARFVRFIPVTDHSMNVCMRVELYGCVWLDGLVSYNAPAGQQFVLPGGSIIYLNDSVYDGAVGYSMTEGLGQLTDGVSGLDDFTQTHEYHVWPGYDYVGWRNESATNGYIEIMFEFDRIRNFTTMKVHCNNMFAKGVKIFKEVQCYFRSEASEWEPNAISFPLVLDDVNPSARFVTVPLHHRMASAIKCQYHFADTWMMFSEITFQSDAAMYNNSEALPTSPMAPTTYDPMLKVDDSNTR


Legend:
[1] = target: T2, Human DDR1 extracellular domain (ECD) protein (human, UniProt Q08345 21-417); test: ELISA on DDR1, antibody at 10 and 1 µg/ml
T2 construct: it is treated here as the same molecule; also called recombinant human DDR1 ECD; huDDR1 ECD; not shown: 6xHIS-tag
T2 sequence (Q08345 21-417): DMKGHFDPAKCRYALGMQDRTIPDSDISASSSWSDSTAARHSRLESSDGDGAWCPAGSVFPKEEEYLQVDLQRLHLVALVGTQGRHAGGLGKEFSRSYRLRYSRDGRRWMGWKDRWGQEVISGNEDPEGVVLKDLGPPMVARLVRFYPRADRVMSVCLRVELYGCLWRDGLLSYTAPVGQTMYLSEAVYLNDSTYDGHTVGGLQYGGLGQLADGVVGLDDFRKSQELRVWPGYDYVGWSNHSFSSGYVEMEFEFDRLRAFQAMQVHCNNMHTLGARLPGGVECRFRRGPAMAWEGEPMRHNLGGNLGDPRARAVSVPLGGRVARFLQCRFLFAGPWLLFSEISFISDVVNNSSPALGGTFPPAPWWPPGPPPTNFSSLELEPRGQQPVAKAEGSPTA

[2] = target: T2, Human DDR1 extracellular domain (ECD) …; test: BLI (Octet); target not given, recombinant DDR1 assumed
human DDR2 ECD = target: T1, human DDR2 ECD; test: ELISA, DDR2 ECD coated, antibody at 1 ug/ml, HRP anti-rabbit detection
Method: FIG. 19. Determination of cross-reactivity of a panel of monoclonal antibodies to human DDR2 using ELISA method. DDR1 or DDR2 ECD protein was coated on a high binding plate and each of monoclonal antibodies at 1 ug/ml concentration was added for binding detection with HRP conjugated anti-rabbit antibody (Jackson ImmuneResearch, PA).
To determination cross-reactivity of a panel of anti-human DDR1 monoclonal antibodies to human DDR2 ECD, an ELISA method was used. DDR1 ECD or DDR2 ECD protein was coated on a high binding plate and each of monoclonal antibodies was applied at 1 ug/ml concentration and binding was detected using HRP conjugated anti-rabbit antibody (Jackson ImmuneResearch, PA). Monoclonal antibodies DDR1-3; DDR1-9; DDR1-10; DDR1-14 and DDR1-33 were specific for DDR1 epitopes, while clones DDR1-13; DDR1-15; DDR1-21; DDR1-22 and DDR1-34 appear to recognize epitopes present on both DDR1 and DDR2 ECD.

| Binder | binding result [1] | other results |
| --- | --- | --- |
| DDR1-20 (antibody, V domains shown, also called DDR1-20K/DDR1-20H) VH: QSVKESGGGLFKPMDTLTLTCTVSGFSLSDYAMSWVRQAPGKGLEWIGIINSRDDTGYASWAKGRFTISKTSSTTVDLRITSPTTEDTATYFCAREDSSIPFIVGNYYGMDLWGPGTLVTVSS VL: ELDLTQTPASVSAAVGGTVTINCQSSQIIDHDHLSWYQQKPGQRPKLLIYRASTLTSGVPSRFKGSGSGTDFTLTISDLECADVATYYCQNNNGMTVSDFNAFGGGTEVEIK | binds | – |
| DDR1-9Hu-Ab2 (antibody, V domains shown, Humanized form of DDR1-9) VH: QVQLVESGGRVVQPGRSLRLSCTASGFSLNRYYMLWVRQAPGKGLEWIGTISYGDTTYYASWAKGRFTISRDNSKNTLYLQMNSLRAEDTAVYYCARADTGDNGYLGLQLWGQGTLVTVSS VL: DIQMTQSPSSVSASVGDRVTITCRASQSIGSVLAWYQQKPGKAPKLLIYGVFSLQSGVPSRFSGSGSGTDFTLTISSLQPEDFATYYCQYIPYGSSPFGGGTKVEIK | – | Kd [2]: 0.77 nM; koff [2]: 0.000113 s⁻¹; kon [2]: 146000 M⁻¹ s⁻¹ |
| DDR1-13 (antibody, V domains shown, Rabbit variable domains; Detected with anti-rabbit HRP antibody in the DDR2 ELISA; also called DDR1-13K/DDR1-13H) VH: EQSVEESGGRLVTPGGSLTLTCTASGFSLNNYAIIWVRQAPGKGLEYIGIFNNGDIYYANWAKGRFTISKTSTTVGLKIVSPTTEDTATYFCARTGYRTGGWLWGPGTLVTISS VL: ELVMTQTPSPVSAAVGGTVSISCQSSKSVYNNNALSWFQQKPGQPPKVLIYGVSTLDSGVSSRFSGSGYGTEFTLTISDVQCDDAATYYCAGDYSDISDNNFGGGTELEIK | binds | binding result (human DDR2 ECD): binds |
| DDR1-21 (antibody, V domains shown, Rabbit variable domains; Detected with anti-rabbit HRP antibody in the DDR2 ELISA; also called DDR1-21K/DDR1-21H) VH: QSLEESGGRLVTPGTPLTLTCTVSGFSLSSYGVHWVRQAPGKGLDWIGKIYPSGSIYYSSWAKGRFTISKTSTTVDLKMTSLTTEDTATYFCVRYLTGSSDLHLWGPGTLVTISS VL: ELVLTQTPSSTSAAVGGTVTISCQSSQSVVDKNWLAWYQQKPGQPPKLLIYEASKLASGVPPRFSGSGSGTQFTLTISGVQCDDAATYYCAGDFESGVSGFGGGTEVEIK | binds | binding result (human DDR2 ECD): binds |
| DDR1-22 (antibody, V domains shown, Rabbit variable domains; Detected with anti-rabbit HRP antibody in the DDR2 ELISA; also called DDR1-22K/DDR1-22H) VH: QSVKESGGRLVTPGGSLTLTCTVSGFSLSDYAMIWVRQAPGKGLEYIGIINNGDIYYATWAKGRFTISETSSTTMGLNIISPTTEDTATYFCARPGYRTGIWLWGPGTLVTISS VL: ELVLTQTPSPVSAAVGGTVTINCQSSKNIYNNNALSWFQQKPGQPPKLLIYGASTLASGVPSRFKGSGSGTQFTLTISDVQCDDAATYYCAADYSDISDNNFGGGTEVVVK | binds | binding result (human DDR2 ECD): binds |
| DDR1-29 (antibody, V domains shown, also called DDR1-29K/DDR1-29H) VH: QSVKSGGGLVKPGASLTLTCKASTFSFNSRYWTCWVRQAPGKGLEWIGCINNGDITTYYTNWATGRFTISKSSSTTVTLQMTSLTAADTATYFCAKGGNLAGDCYGLWGPGTLVTISG VL: ELVMTQTPASVEAAVGGTVTIKCQASQSISNHLGWYQQKPGQPPKLLIYRASTLESGVSSRFKGSGSGSEFTLTISDLECADAATYYCQSYYIINRSNYANSFGGGTEVEIK | binds | – |
| DDR1-17 (antibody, V domains shown, also called DDR1-17K/DDR1-17H) VH: SSVEESGGRLVAPGTPLTLTCTVSGFSLNRYAMSWVRQAPGKGLEWIGIIGSSGSTYYASWAKGRFTISKTSTTVDLKITSPTTEDTATYFCARDLDDSYGYTYATGMDIRLDLWGQGTLVTVSS VL: ELVLTQTPASVSEPVGGTVTIKCQASQSIGSYLSWYQQKAGQPPKRLIYEASTLASGVPSRFSGSGSGTDFTLTISDLECADVATYYCQNNNGMTVSDFNAFGGGTEVEIK | binds | – |
| DDR1-28 (antibody, V domains shown, also called DDR1-28K/DDR1-28H) VH: QSVEESGGRLVTPGTPLTLTCTVSGFSLSSHDMIWVRQAAGKGLEWIGLIISSGNTWYASWAKGRFTISKTSTTVDLKMTSLTTEDTATYFCARDVYSGASPWGPGTLVTISS VL: ELDLTQTPASVEAAVGGTVTIKCQASQSIDNNDLAWYQQKPGQPPNLLISRTSTLASGVSSRFKGSGSGTEFTLTISDLECADAATYYCQSYCVNTYGYTFGGGTEVVVK | binds | – |
| DDR1-6 (antibody, V domains shown, also called DDR1-6K/DDR1-6H) VH: SQSLKESGGDLVKPGASRTLTCIAPGFSFSSSYYMCWVRQAPGKGLEWIACIYASSGSTYYASWAKGRFTISKTSSTTVTLQMTTLTAADTATYFCAAILGADYRLTRLDLWGQGTLVTVSS VL: ELVMTQTPSPVSAAVGGTVTISCQSSQSVYSNYLSWYQQKPGQPPKLLIYETSTLASGVPSRFKGSGSGTQFTLTISDVQCDDAATYYCQGGYSEIIENTFGGGTEVEIK | binds | – |
| DDR1-12 (antibody, V domains shown, also called DDR1-12K/DDR1-12H) VH: QSLEESGGRLVTPGTPLTLTCTVSGIDLSNTWMNWVRQAPGKGLEWIGVITDSGTTYYANWAKGRFTISRTSTTVDLKMPSLTTEDTATYFCGRDPGDITSGTNDLWGPGTLVTISS VL: ELVLTQTPASVSEPVGGTVTIKCQASQTIYSNLAWYQQKPGQRPKLLIYQASKLASGVPSRFKGSGSGTEYTLTISDLECADAATYYCQSYYGADDYTFGGGTEVVVK | binds | – |
| DDR1-11 (antibody, V domains shown, also called DDR1-11K/DDR1-11H) VH: QSLEESGGDLVKPGASLTLTCTASGFSFSSGYYMCWVRQAPGKGLEWIACIYTGRTDFTDYASWAKGRFTISKTSSTTVTLQLTTLTAADTATYFCARGDYSGGVGGNYWLDLWGQGTLVTISS VL: ELVMTQTASPVSAAVGGTVTINCQASQSIGSTYLSWYQQKPGQPPKLLIYKASILASGVPSRFSGSGSGTEYTLTISGVQCDDAATYYCLYGGFGSSTGDAFGGGTVLVVK | binds | – |
| DDR1-15 (antibody, V domains shown, Rabbit variable domains; Detected with anti-rabbit HRP antibody in the DDR2 ELISA; also called DDR1-15K/DDR1-15H) VH: SQSLEESGGDLVKPGASLTLTCTASTFSFNSRYWTCWVRQAPGKGLEWIGCINNGDISTYYASWATGRFTISKSSSTTVTLHMTSLTAADTATYFCAKGGNLAGDCYGLWGPGTLVTISS VL: ELVMTQTPASVEVAVGGTVTIKCQASQTIYSSLAWYQQKPGQPPKLLIYKASTLASGVPSRFKGSGSGTQFTLTISGVQCDDAATYYCQQGSSISNVDKNAFGGGTEVEIK | binds | binding result (human DDR2 ECD): binds |
| DDR1-34 (antibody, V domains shown, Rabbit variable domains; Detected with anti-rabbit HRP antibody in the DDR2 ELISA; also called DDR1-34K/DDR1-34H) VH: QSVKESGGGLVKPEGSLTLTCKASGFDLSSYYYMCWVRQAPGKGLEWIACIYTSSGATWYANWAKGRFTISKTSSTTVTLQMTALTAADTATYFCARGGWCDFNLWGPGTLVTISS VL: ELDLTQTPASVSAAVGGTVTISCQSSENLYKDNYLAWYQQKPGQPPKLLIYGASNLASGVPSRFKGSGSGTQFTLTISDLECDDAATYYCAGGYDSVVDFGGGTEVVVK | binds | binding result (human DDR2 ECD): binds |
| DDR1-23 (antibody, V domains shown, also called DDR1-23K/DDR1-23H) VH: SQSVKESGGDLVKPGASLTLTCKASGFDLRSYYYMCWVRQAPGKGLEWIACIHGGEGNTYYASWAKGRFTISKTSSTAVTLQMTSLTAADTATYFCARGGWTNYFWGPGTLVTVSS VL: ELVLTQTPSSVSAAVGGTVTISCQSSQSVYSNNYLAWYQQKPGQPPKLLIYAASTLASGVPSRFKGSGSGTQFTLTISGVQCDDAAVYYCLGGYNDDANFGGGTEVEIK | binds | – |
| DDR1-26 (antibody, V domains shown, also called DDR1-26K/DDR1-26H) VH: EQSLKESGGDLVKPGASLTLTCTASGFDLSSNYYMCWVRQAPGKGPEWIACIYSSNTRTWYARWAKGRFTISKTSSTAVTLQMTSLTAADTATYFCARGGWTNYLWGPGTLVTISS VL: ELDLTQTPSSVSAAVGGTVTISCQSSESVYSNNHLAWYQQKPGQPPKLLIYAASTLASGVPSRFSGSGSGTQFTLTISGVQCDDAAVYYCLGGYNDDANFGGGTEVVVK | binds | – |
| DDR1-5 (antibody, V domains shown, also called DDR1-5K/DDR1-5H) VH: QSVKESGGRLVTPGTPLTLTCTVSGFTLSNNAISWVRQAPGKGLEWIGIIYASGRTYYATWAKGRFTISKTSTTVDLKMTSPTTEDTATYFCARGDTETDYGIPYFDLWGPGTLVTISS VL: ELVLTQTPASVSEPVGGTVTIKCQASQTISSWLSWYQQKPGQPPKLLIYYAFNLASGVPSRFKGSGSGTEYTLTISDLECADAATYYCQCTYGSGSSSSYGCAFGGGTELEIK | binds | – |
| DDR1-1 (antibody, V domains shown, also called DDR1-1K/DDR1-1H) VH: QSVEESGGRLVTPGTPLTLTCTVSGFSLSRYAMTWVRQAPGKGLEWIGIIGSSGLTYFATWAKGRFTISKTSTTVDLKITSPTTEDTATYFCARGMWYDDSDDYEDYFNLWGPGTLVTISS VL: ELVLTQTPASVSAAVGGTVTINCQASQNIYSNLAWYQQKPGQPPKLLIYGASNLESGVPSRFKGSGSGTQFTLTISDLECDDAATYYCQSGYYSSSTDIAFGGGTEVVVK | binds | – |
